# Experimental data taken from US20200283521A1 (GRANULAR THERAPEUTICS, published 2020).
# Substitutions are numbered along the chain they refer to. Numbers in names are those of the source. Where two headings read alike, the source gives them in different places.
# B1: h37M-IgG1-3M (antibody, V domains shown)
# VH: QVQLVQSGAEVKKPGASVKLSCKASGYTFTDYYINWVRQAPGKGLEWIARIYPGSGNTYYNEKFKGRATLTADKSTSTAYMQLSSLRSEDTAVYFCARGVYYFDYWGQGTTVTVSS
# VL: DIVMTQSPSSLSASVGDRVTITCKASQNVRTNVAWYQQKPGKAPKALIYSASYRYSGVPDRFTGSGSGTDFTLTISSLQPEDFADYFCQQYNSYPRTFGGGTKVEIK
# notes: human IgG1 with L234A/L235A/G237A; also called C-KIT-h37M
# B2: MH1, IgG1-3M format (antibody, V domains shown)
# VH: QVQLVQSGAEVKKPGASVKVSCKASGYTFTDYYMNWVRQAPGQGLEWMGRIYPGSGNTYYAQKFQGRVTMTRDTSTSTVYMELSSLRSEDTAVYYCARGVYYYDYWGQGTLVTVSS
# VL: DIQMTQSPSSLSASVGDRVTITCRASQGIRTNLAWFQQKPGKAPKSLIYAASSLQSGVPSRFSGSGSGTDFTLTISSLQPEDFATYYCQQYNSYPRTFGGGTKVEIK
# notes: human IgG1 with L234A/L235A/G237A; also called C-KIT-MH1
# B3: MH5-DI, IgG1-3M format (antibody, V domains shown)
# VH: B2 VH
# VL: B2 VL with N92A, S93N
# B4: MH7 (antibody, IgG1, V domains shown)
# VH: B2 VH
# VL: B2 VL with A50S, R96H
# notes: IgG1
# B5: MH2 (antibody, IgG1, V domains shown)
# VH: B2 VH
# VL: B2 VL with A50S, N92A
# notes: IgG1
# B6: MH3 (antibody, IgG1, V domains shown)
# VH: B2 VH
# VL: B2 VL with A50S, S93A
# notes: IgG1
# B7: MH5, IgG1-3M format (antibody, V domains shown)
# VH: B2 VH
# VL: B2 VL with A50S, N92A, S93N
# notes: human IgG1 with L234A/L235A/G237A
# B8: chimeric anti-C-KIT antibody m37M, human IgG1 (antibody, V domains shown)
# VH: QVQLKQSGAELVRPGASVKLSCKASGYTFTDYYINWVKQRPGQGLEWIARIYPGSGNTYYNEKFKGKATLTAEKSSSTAYMQLSSLTSEDSAVYFCARGVYYFDYWGQGTTLTVSS
# VL: DIVMTQSQKFMSTSVGDRVSVTCKASQNVRTNVAWYQQKPGQSPKALIYSASYRYSGVPDRFTGSGSGTDFTLTISNVQSEDLADYFCQQYNSYPRTFGGGTKLEIKR
# Tests used:
# human C-KIT-Fc [1] = molecular target: T1, human C-KIT-Fc (human, UniProt P10721 26-524); assay: HTRF epitope competition in solution; unlabelled h37M IgG1-3M titrated against terbium-labelled h37M IgG1 on biotinylated human C-KIT-Fc
# T1 construct: also called biotinylated human C-KIT-Fc; not shown: Fc part not described
# [2] = molecular target: T2, cynomolgus monkey C-KIT-Fc (cynomolgus monkey); assay: HTRF epitope competition in solution; competitor IgG1-3M titrated against terbium-labelled h37M IgG1 on cyno C-KIT-Fc
# T2 construct: also called cyno C-KIT-Fc
# [3] = molecular target: T3, human C-KIT, full length, on cells (human, UniProt P10721 26-976); assay: cell-based or functional assay
# human C-KIT-Fc [4] = molecular target: T1, human C-KIT-Fc; assay: HTRF epitope competition in solution; competitor IgG1-3M titrated against terbium-labelled h37M IgG1 on biotinylated human C-KIT-Fc
# [5] = molecular target: T4, cynomolgus monkey C-KIT, full length, on CHO-K1 cells (cynomolgus monkey); assay: cell-based or functional assay
# [6] = molecular target: T3, human C-KIT, full length, on cells; assay: cell-based or functional assay; remark: listed apart in the source
# [7] = molecular target: T3, human C-KIT, full length, on cells; assay: flow cytometry, C-KIT-transfected CHO-K1 cells, IgG1 format
# human C-KIT-Fc [8] = molecular target: T1, human C-KIT-Fc; assay: HTRF competition on human C-KIT-Fc against terbium-labelled h37M IgG1
# human C-KIT-Fc [9] = molecular target: T1, human C-KIT-Fc; assay: as above; remark: listed apart in the source
# [10] = molecular target: T3, human C-KIT, full length, on cells; assay: flow cytometry, C-KIT-transfected CHO-K1 cells, IgG1 format; remark: listed apart in the source
# [11] = molecular target: T4, cynomolgus monkey C-KIT, full length, …; assay: as above
# [12] = molecular target: T3, human C-KIT, full length, on cells; assay: as above; remark: listed apart in the source
# [13] = molecular target: T2, cynomolgus monkey C-KIT-Fc; assay: direct titration ELISA on coated C-KIT-Fc, IgG1 format
binder,measurement,setting,value
B1,IC50 (read off the curve),human C-KIT-Fc [1],~0.01 µg/mL
B2,IC50 (read off the curve),[2],~0.02 µg/mL
same,"TF-1 proliferation, fold less potent than h37M",[3],26.5 fold
same,IC50 (read off the curve),human C-KIT-Fc [4],~0.01 µg/mL
same,Cyno C-KIT CHO FabZAP IC50 (pM),[5],14 pM
same,Human C-KIT CHO FabZAP IC50 (pM),[6],8.7 pM
same,TF-1 FabZAP IC50 (pM),[6],51.1 pM
same,TF-1 proliferation IC50,[6],2.86 nM
B3,"TF-1 proliferation, fold less potent than h37M",[3],244 fold
same,Cyno C-KIT CHO FabZAP IC50 (pM),[5],13.5 pM
same,Human C-KIT CHO FabZAP IC50 (pM),[6],12.6 pM
same,TF-1 FabZAP IC50 (pM),[6],53.7 pM
same,TF-1 proliferation IC50,[6],26.3 nM
B4,binding result,[7],binds
same,binding result,human C-KIT-Fc [8],binds
B5,binding result,human C-KIT-Fc [9],binds
same,binding result,[10],binds
B6,binding result,human C-KIT-Fc [9],binds
same,binding result,[10],binds
B7,IC50 (read off the curve),[2],~0.02 µg/mL
same,IC50 (read off the curve),human C-KIT-Fc [4],~0.03 µg/mL
B8,EC50 (read off the curve),[11],~0.2 µg/mL
same,EC50 (read off the curve),[12],~0.2 µg/mL
same,EC50 (read off the curve),[13],~0.1 µg/mL
